According to patent US20180051287:

Legend:
[1] = system: casein; test: FP filter; conditions: specificity control; 100 nM DNA, 20 uM casein
[2] = target: complement factor D (fD) (UniProt P00746); test: flow; conditions: 2'-F G, 2'-OMe A, C, U, apparent Kd of pool, SB1T, 37 C
[3] = target: complement factor D (fD) (UniProt P00746); test: FP filter; conditions: 100 nM DNA, 5 uM fD
[4] = target: complement factor D (fD) (UniProt P00746); test: inhibition; conditions: non-specific control oligo

complement factor D (fD), sequence (P00746 26-253): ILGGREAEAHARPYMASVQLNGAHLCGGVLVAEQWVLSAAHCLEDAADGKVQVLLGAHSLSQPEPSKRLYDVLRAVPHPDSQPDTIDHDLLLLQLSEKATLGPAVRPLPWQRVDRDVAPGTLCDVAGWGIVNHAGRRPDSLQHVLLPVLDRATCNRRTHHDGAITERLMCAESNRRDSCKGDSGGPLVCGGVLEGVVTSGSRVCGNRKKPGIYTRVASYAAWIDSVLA

| Substance | binding signal [1] [% bound] | also measured |
| --- | --- | --- |
| GTGACGACTGACATATCTGCTGCTTCCAGCGGTCATGATATGCACTGTCTGAAGCTCGGTCGTAGTTGAGTCTGAGTGCT [Aptamer 15 (rank 12)] | 0.2 |  |
| GTGACGACTGACATATCTGCAAAAGTTAGATTGACATGGTATGCACCGTCTGAGGTTGGTCGTAGTTGAGTCTGAGTGCT [Aptamer 12 (rank 9)] | 0.6 |  |
| GTGACGACTGACATATCTGCGTTTGGGGTTGGGGCCTGGGAGTTTGGGGAGCAGAAAGGACGTAGTTGAGTCTGAGTGCT [Aptamer 5 (rank 2)] | 0.5 |  |
| GTGACGACTGACATATCTGCGGCGGTTGGGGTCGAAGGGCGAGGGGTGGGAGGTCGCCGTAGTTGAGTCTGAGTGCT [Aptamer 7 (rank 4)] | 0.1 |  |
| GGGAGUGUGUACGAGGCAUUAGGCCGCCNNNNNNNNNNNNNNNNNNNNNNNNNNNNNNGGCGGCUUUGAUACUUGAUCGCCCUAGAAGC [N30S selection round 6 pool] |  | Kd [2]: 34.4 nM |
| GTGACGACTGACATATCTGCTATTTTGGGGCCTGGGTGTTGGGGATTGGGGACTATGTGTCGTAGTTGAGTCTGAGTGCT [Aptamer 8 (rank 5)] | 0.3 |  |
| GGGAGUGUGUACGAGGCAUUAGGCCGCCNNNNNNNNNNNNNNNNNNNNNNNNNNNNNNGGCGGCUUUGAUACUUGAUCGCCCUAGAAGC [N30S selection round 8 pool] |  | Kd ([2]; competed by anti-fD Fab AFD): 8.8 nM |
| GGGAGUGUGUACGAGGCAUUAGGCCGCCNNNNNNNNNNNNNNNNNNNNNNNNNNNNNNGGCGGCUUUGAUACUUGAUCGCCCUAGAAGC [N30S selection round 7 pool] |  | Kd ([2]; competed by anti-fD Fab AFD): 45.1 nM |
| GTGACGACTGACATATCTGCNNNNNNNNNNNNNNNNNNNNNNNNNNNNNNNNNNNNNNNNCGTAGTTGAGTCTGAGTGCT [naive N40 DNA library] | 0.5 | binding signal ([3]; naive library background): 3.6 % bound; binding signal ([3]; round 0 library): 0.88 % bound |
| GTGACGACTGACATATCTGCTCCGAGGTTATTGGGGTTGGGGCCTGGGCGATTGGGGCCTCGTAGTTGAGTCTGAGTGCT [Aptamer 4 (rank 1)] | 0.5 |  |
| GTGACGACTGACATATCTGCGGGCGTCTGAGCGCATGGATGACCCACCGACAGATTGCGGCGTAGTTGAGTCTGAGTGCT [Aptamer 27 (rank 24)] | 0.6 |  |
| GTGACGACTGACATATCTGCCCTATAGGGGTGTGGGCGAGGGGTGGGTGGTAGGGCGGCTCGTAGTTGAGTCTGAGTGCT [Aptamer 10 (rank 7)] | 0.2 |  |
| C8 non-specific control oligo |  | IC50 ([4]; alternative-pathway hemolysis): > 160 nM; activity ([4]; fD esterase assay): 105 % activity |
| GTGACGACTGACATATCTGCNNNNNNNNNNNNNNNNNNNNNNNNNNNNNNNNNNNNNNNNCGTAGTTGAGTCTGAGTGCT [DNA selection round 9 pool] |  | binding signal ([3]; round 9 pool): 14.6 % bound |
